Experimental data taken from publication PMC9473612.

Target: EB1-mScarlet (UniProt Q9XZ57)
Assay: co-immunoprecipitation (mNeongreen-trap) with immunoblot quantification
Settings: S2 cells overexpressing the constructs; n = 3 independent replicates; parent: est. 100; read off a plot

Sequence of UniProt Q9XZ57 (Q9XZ57 entry or part of it): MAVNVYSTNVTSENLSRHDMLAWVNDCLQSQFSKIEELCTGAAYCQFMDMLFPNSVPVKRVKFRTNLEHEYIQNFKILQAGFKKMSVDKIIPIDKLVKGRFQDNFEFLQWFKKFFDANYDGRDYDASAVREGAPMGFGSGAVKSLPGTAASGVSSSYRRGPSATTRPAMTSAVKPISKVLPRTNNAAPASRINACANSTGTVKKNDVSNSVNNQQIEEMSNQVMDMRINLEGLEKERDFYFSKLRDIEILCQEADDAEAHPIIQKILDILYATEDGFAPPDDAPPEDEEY

| Substance | percent of parent (% relative to WT) |
| --- | --- |
| mNeongreen RhoGEF2 (1–619), wild type 7A (seven serines proximal to the SKIP motif changed to A; residue numbers not printed) | 76 |
| mNeongreen RhoGEF2 (1–619), wild type 7E (seven serines proximal to the SKIP motif changed to E; residue numbers not printed) | 56 |
| mNeongreen RhoGEF2 (1–619), wild type SKIP→SKNN (I→N; P→N in the SxIP motif; residue numbers not printed) | 78 |
